Data taken from the supplement of paper PMC6757056.
± gives the standard deviation of the averaged measurements.

B1: library; a variant is named by its letters at N, in order (parent)
chain: GCUGUCACCGGUGUAUUACCCUAGUGGUCGACCGGUCUGAUGAGUCUNNNNNNAGACGAAACAGC

Columns and labels:
hypoxanthine [1] = variants of: B1; assay: normalized RNA/DNA level with ligand (relative to sTRSVctl = 100) (log10 (% of sTRSVctl)); ligand: hypoxanthine (xanthine aptamer); higher = less ribozyme self-cleavage, higher mRNA level; conditions: ligand concentration (+) RNA-Seq: 5 mM, HEK293T, reporter: mCherry (pCS4076), ligand present: yes
Method in brief: (§1)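 Total RNA, extracted with EDTA 72 h after HEK293T cells were transfected with 4 µg per 6-well well of reporter-linked ribozyme switch library plasmids, was reverse-transcribed, amplified, barcoded and sequenced. Ligand, if used, was added 1 h before transfection. RNA level was derived from RNA reads divided by DNA reads and normalized to a spiked-in non-cleaving sequence or to the top sequences. This was multiplied by 100 and log10-transformed, with the top set of 25 sequences and a ≥100 DNA read minimum.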

hypoxanthine [2] = variants of: B1; assay: normalized RNA/DNA level without ligand (relative to sTRSVctl = 100) (log10 (% of sTRSVctl)); ligand: hypoxanthine (xanthine aptamer); higher = less ribozyme self-cleavage, higher mRNA level; conditions: HEK293T, reporter: mCherry (pCS4076), ligand present: no
Method in brief: as §1

Variant | normalized RNA/DNA level with ligand (log10) (hypoxanthine [1]) | normalized RNA/DNA level without ligand (log10) (hypoxanthine [2])
GCUGUCACCGGUGUAUUACCCUAGUGGUCGACCGGUCUGAUGAGUCUCUCACAAGACGAAACAGC [CUCACA] | 1.911 ± 0.016 | 1.83 ± 0.021
GCUGUCACCGGUGUAUUACCCUAGUGGUCGACCGGUCUGAUGAGUCUGUAUCCAGACGAAACAGC [GUAUCC] | 1.96 ± 0.025 | 1.86 ± 0.043
GCUGUCACCGGUGUAUUACCCUAGUGGUCGACCGGUCUGAUGAGUCUGUAUCAAGACGAAACAGC [GUAUCA] | 1.96 ± 0.049 | 1.88 ± 0.02
GCUGUCACCGGUGUAUUACCCUAGUGGUCGACCGGUCUGAUGAGUCUGUAUCGAGACGAAACAGC [GUAUCG] | 1.9 ± 0.042 | 1.57 ± 0.017
GCUGUCACCGGUGUAUUACCCUAGUGGUCGACCGGUCUGAUGAGUCUUUCAACAGACGAAACAGC [UUCAAC] | 1.94 ± 0.044 | 1.873 ± 0.011
GCUGUCACCGGUGUAUUACCCUAGUGGUCGACCGGUCUGAUGAGUCUAUAUUAAGACGAAACAGC [AUAUUA] | 1.868 ± 0.0053 | 1.82 ± 0.028
GCUGUCACCGGUGUAUUACCCUAGUGGUCGACCGGUCUGAUGAGUCUAUAUUUAGACGAAACAGC [AUAUUU] | 1.903 ± 0.0024 | 1.89 ± 0.057
GCUGUCACCGGUGUAUUACCCUAGUGGUCGACCGGUCUGAUGAGUCUAUAUGCAGACGAAACAGC [AUAUGC] | 1.94 ± 0.0047 | 1.76 ± 0.018
GCUGUCACCGGUGUAUUACCCUAGUGGUCGACCGGUCUGAUGAGUCUUUAUGUAGACGAAACAGC [UUAUGU] | 1.92 ± 0.021 | 1.794 ± 0.01
GCUGUCACCGGUGUAUUACCCUAGUGGUCGACCGGUCUGAUGAGUCUUUAUGCAGACGAAACAGC [UUAUGC] | 1.94 ± 0.039 | 1.874 ± 0.0042
GCUGUCACCGGUGUAUUACCCUAGUGGUCGACCGGUCUGAUGAGUCUAUCACAAGACGAAACAGC [AUCACA] | 1.908 ± 0.0044 | 1.84 ± 0.023
GCUGUCACCGGUGUAUUACCCUAGUGGUCGACCGGUCUGAUGAGUCUGUCAACAGACGAAACAGC [GUCAAC] | 1.95 ± 0.02 | 1.748 ± 0.0031
GCUGUCACCGGUGUAUUACCCUAGUGGUCGACCGGUCUGAUGAGUCUGUCAAUAGACGAAACAGC [GUCAAU] | 1.925 ± 0.015 | 1.8 ± 0.054
GCUGUCACCGGUGUAUUACCCUAGUGGUCGACCGGUCUGAUGAGUCUCUAUUUAGACGAAACAGC [CUAUUU] | 2 ± 0.021 | 1.93 ± 0.053
GCUGUCACCGGUGUAUUACCCUAGUGGUCGACCGGUCUGAUGAGUCUGUAUUUAGACGAAACAGC [GUAUUU] | 1.94 ± 0.079 | 1.859 ± 0.018
GCUGUCACCGGUGUAUUACCCUAGUGGUCGACCGGUCUGAUGAGUCUGUAUUAAGACGAAACAGC [GUAUUA] | 1.92 ± 0.03 | 1.842 ± 0.017
GCUGUCACCGGUGUAUUACCCUAGUGGUCGACCGGUCUGAUGAGUCUGUAUUCAGACGAAACAGC [GUAUUC] | 1.95 ± 0.073 | 1.931 ± 0.013
GCUGUCACCGGUGUAUUACCCUAGUGGUCGACCGGUCUGAUGAGUCUAUAUCCAGACGAAACAGC [AUAUCC] | 1.938 ± 0.015 | 1.876 ± 0.018
GCUGUCACCGGUGUAUUACCCUAGUGGUCGACCGGUCUGAUGAGUCUAUAUCUAGACGAAACAGC [AUAUCU] | 1.89 ± 0.026 | 1.844 ± 0.016
GCUGUCACCGGUGUAUUACCCUAGUGGUCGACCGGUCUGAUGAGUCUCUCAAAAGACGAAACAGC [CUCAAA] | 1.919 ± 0.0021 | 1.785 ± 0.013
GCUGUCACCGGUGUAUUACCCUAGUGGUCGACCGGUCUGAUGAGUCUCUCAAGAGACGAAACAGC [CUCAAG] | 1.88 ± 0.0045 | 1.742 ± 0.0067

Variant | normalized RNA/DNA level with ligand (log10) (hypoxanthine [1]) | normalized RNA/DNA level without ligand (log10) (hypoxanthine [2])
GCUGUCACCGGUGUAUUACCCUAGUGGUCGACCGGUCUGAUGAGUCUCUCAAUAGACGAAACAGC [CUCAAU] | 1.92 ± 0.036 | 1.792 ± 0.0044
GCUGUCACCGGUGUAUUACCCUAGUGGUCGACCGGUCUGAUGAGUCUCUCAACAGACGAAACAGC [CUCAAC] | 1.98 ± 0.052 | 1.926 ± 0.0052
GCUGUCACCGGUGUAUUACCCUAGUGGUCGACCGGUCUGAUGAGUCUGUCACAAGACGAAACAGC [GUCACA] | 1.917 ± 0.002 | 1.81 ± 0.022
GCUGUCACCGGUGUAUUACCCUAGUGGUCGACCGGUCUGAUGAGUCUCUAUGUAGACGAAACAGC [CUAUGU] | 1.952 ± 0.0085 | 1.88 ± 0.019
GCUGUCACCGGUGUAUUACCCUAGUGGUCGACCGGUCUGAUGAGUCUCUAUGCAGACGAAACAGC [CUAUGC] | 1.99 ± 0.044 | 1.88 ± 0.076
GCUGUCACCGGUGUAUUACCCUAGUGGUCGACCGGUCUGAUGAGUCUCUAUGAAGACGAAACAGC [CUAUGA] | 1.95 ± 0.036 | 1.85 ± 0.042
GCUGUCACCGGUGUAUUACCCUAGUGGUCGACCGGUCUGAUGAGUCUUUAUUGAGACGAAACAGC [UUAUUG] | 1.897 ± 0.017 | 1.714 ± 0.0023
GCUGUCACCGGUGUAUUACCCUAGUGGUCGACCGGUCUGAUGAGUCUUUAUUUAGACGAAACAGC [UUAUUU] | 1.91 ± 0.033 | 1.91 ± 0.031
GCUGUCACCGGUGUAUUACCCUAGUGGUCGACCGGUCUGAUGAGUCUUUAUUCAGACGAAACAGC [UUAUUC] | 1.96 ± 0.045 | 1.936 ± 0.016
GCUGUCACCGGUGUAUUACCCUAGUGGUCGACCGGUCUGAUGAGUCUUUAUCAAGACGAAACAGC [UUAUCA] | 1.953 ± 0.0031 | 1.83 ± 0.024
GCUGUCACCGGUGUAUUACCCUAGUGGUCGACCGGUCUGAUGAGUCUUUAUCCAGACGAAACAGC [UUAUCC] | 1.957 ± 0.016 | 1.929 ± 0.013
GCUGUCACCGGUGUAUUACCCUAGUGGUCGACCGGUCUGAUGAGUCUUUAUCGAGACGAAACAGC [UUAUCG] | 1.905 ± 0.01 | 1.78 ± 0.084
GCUGUCACCGGUGUAUUACCCUAGUGGUCGACCGGUCUGAUGAGUCUUUAUCUAGACGAAACAGC [UUAUCU] | 1.977 ± 0.014 | 1.86 ± 0.026
GCUGUCACCGGUGUAUUACCCUAGUGGUCGACCGGUCUGAUGAGUCUGUAUGCAGACGAAACAGC [GUAUGC] | 1.868 ± 0.0093 | 1.46 ± 0.08
GCUGUCACCGGUGUAUUACCCUAGUGGUCGACCGGUCUGAUGAGUCUCUAUCGAGACGAAACAGC [CUAUCG] | 1.956 ± 0.016 | 1.94 ± 0.033
GCUGUCACCGGUGUAUUACCCUAGUGGUCGACCGGUCUGAUGAGUCUCUAUCUAGACGAAACAGC [CUAUCU] | 1.9 ± 0.075 | 1.89 ± 0.042
GCUGUCACCGGUGUAUUACCCUAGUGGUCGACCGGUCUGAUGAGUCUCUAUCAAGACGAAACAGC [CUAUCA] | 1.92 ± 0.041 | 1.86 ± 0.029
GCUGUCACCGGUGUAUUACCCUAGUGGUCGACCGGUCUGAUGAGUCUCUAUCCAGACGAAACAGC [CUAUCC] | 1.93 ± 0.062 | 1.92 ± 0.049
GCUGUCACCGGUGUAUUACCCUAGUGGUCGACCGGUCUGAUGAGUCUAUCAAUAGACGAAACAGC [AUCAAU] | 1.89 ± 0.038 | 1.78 ± 0.058
GCUGUCACCGGUGUAUUACCCUAGUGGUCGACCGGUCUGAUGAGUCUAUCAAAAGACGAAACAGC [AUCAAA] | 1.921 ± 0.011 | 1.79 ± 0.034
GCUGUCACCGGUGUAUUACCCUAGUGGUCGACCGGUCUGAUGAGUCUAUCAACAGACGAAACAGC [AUCAAC] | 1.99 ± 0.031 | 1.84 ± 0.028
